# Measured values taken from patent US20240067747A1 (SHANGHAI HUAOTA BIOPHARMACEUTICAL, published 2024).
# Like-named read-outs stand apart in the source and are kept apart here.
# T1: human CD73 on the cell surface of CHOK1-huCD73-3F4 cells (Huabo Biopharm) (human, UniProt P21589 27-549)
# T1 construct: whole, on cells; also called cells expressing human CD73; CD73 on cell membrane
# T1 sequence (looked up): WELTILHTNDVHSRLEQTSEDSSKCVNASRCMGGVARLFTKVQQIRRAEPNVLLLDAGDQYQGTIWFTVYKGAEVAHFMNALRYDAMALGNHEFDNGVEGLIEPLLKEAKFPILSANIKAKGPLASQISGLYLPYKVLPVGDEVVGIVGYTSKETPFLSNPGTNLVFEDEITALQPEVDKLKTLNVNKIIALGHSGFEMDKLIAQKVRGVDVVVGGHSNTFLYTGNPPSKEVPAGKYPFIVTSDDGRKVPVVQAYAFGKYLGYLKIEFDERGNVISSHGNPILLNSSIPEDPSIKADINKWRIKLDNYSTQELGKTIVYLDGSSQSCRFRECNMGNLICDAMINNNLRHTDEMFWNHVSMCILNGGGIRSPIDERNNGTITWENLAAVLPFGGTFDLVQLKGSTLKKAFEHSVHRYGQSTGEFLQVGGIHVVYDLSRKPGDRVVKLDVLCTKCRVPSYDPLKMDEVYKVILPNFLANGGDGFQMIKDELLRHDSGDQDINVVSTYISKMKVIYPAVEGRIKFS
# T2: Human CD73 (as used in the hybridoma screening of Table 1) (human, UniProt P21589 27-549, limits assumed)
# T2 sequence (looked up): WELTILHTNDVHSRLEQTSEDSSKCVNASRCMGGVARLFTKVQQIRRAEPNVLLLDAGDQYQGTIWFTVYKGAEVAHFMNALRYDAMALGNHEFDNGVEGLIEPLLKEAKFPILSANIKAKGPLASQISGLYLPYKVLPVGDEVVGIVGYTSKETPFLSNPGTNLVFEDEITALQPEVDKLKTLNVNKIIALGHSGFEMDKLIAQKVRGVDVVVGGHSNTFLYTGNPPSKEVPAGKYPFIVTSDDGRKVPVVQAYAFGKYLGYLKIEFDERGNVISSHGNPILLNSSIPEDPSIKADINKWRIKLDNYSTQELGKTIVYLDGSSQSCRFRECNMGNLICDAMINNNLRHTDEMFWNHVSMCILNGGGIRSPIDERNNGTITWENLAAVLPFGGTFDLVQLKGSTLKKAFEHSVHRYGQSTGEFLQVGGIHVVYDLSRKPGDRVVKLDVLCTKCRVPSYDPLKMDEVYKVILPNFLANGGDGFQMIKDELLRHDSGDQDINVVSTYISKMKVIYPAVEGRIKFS
# Tests used:
# [1] = target: T1, human CD73 on the cell surface of …; assay: flow cytometry on CHOK1-huCD73-3F4 cells, PE-goat anti-human-Fc
# Protocol: All antigen-binding proteins were diluted to 30 μg/ml with 1% BSA in PBS solution (1% BSA/PBS) and then 3-fold diluted for 11 gradients. The diluted antigen-binding proteins were added to a 96-well U-shaped plate at 20 μL per well; and a negative control (with 1% BSA/PBS added only) was set up at the same time. The suspension of cells (CHOK1-huCD73-3F4, Huabo Biopharm) expressing human CD73 during the logarithmic growth phase were centrifuged (1000 rpm×5 min) to discard the culture medium; and the cells were resuspended with 1% BSA/PBS until the density of viable cells was 1×10⁶/mL, and were added, at 20 μL (2×10⁴ cells) per well, to the 96-well U-shaped plate with the […] antigen-binding protein to react for 30 min at room temperature. After reaction, the 96-well U-shaped plate was resuspended with 1% BSA/PBS, centrifuged (300 g×3 min) to discard the supernatant, and washed once in such a way. PE-goat anti-human-Fc (Jackson ImmunoResearch, #109-115098) diluted at 1:200 was added to react for 15 min in the dark at room temperature. After reaction, the 96-well U-shaped plate was resuspended with 1% BSA/PBS, centrifuged (300 g×3 min) to discard the supernatant, washed three times in such a way, and finally resuspended with 100 μL of 1% BSA/PBS for each wall; and the fluorescence intensity of a PE channel was detected with a flow cytometer (BD, #Cantoll).
# [2] = target: T1, human CD73 on the cell surface of …; assay: cell-based or functional assay
# [3] = target: T2, Human CD73 (as used in the hybridoma …); assay: Biacore affinity screen of hybridoma clones
# [4] = target: T1, human CD73 on the cell surface of …; assay: cell-based or functional assay; remark: listed apart in the source
binder,measurement,setting,value
"900584 (screened antigen-binding protein targeting CD73) (antibody, V domains shown, It was detected with PE-goat anti-human-Fc) VH: QVQVQQPGTELVKPGASVKLSCKASGYTFTGYWMHWVKQRPGQGLEWIGMIHPNSGSTYYNEKFKSKATLTVDRSSSTAYMQLSSLSSEDSAVYYCARYYGTTYEWYFDVWGTGTTVTVSS VL: DIQMTQTTSSLSASLGDRVTISCRASQDISNYLNWYQQKPDGTVKPLIYYTSSLHSGVPSRFSGSGSGTDYSLTISDLEHEDIATYFCQQGYTLPFTFGGGTKLEIK",EC50,[1],2.9 µg/mL
same,"EC50 of inhibition of the enzyme activity of CD73 on cell membrane (AMP/ATP, CellTiter-Glo)",[2],11.1 µg/mL
"124A9 murine monoclonal antigen-binding protein (hybridoma clone 124A9) (antibody, V domains shown) VH: QVQLQQPGAELVKPGASVKLSCKASGYTFTSYWIHWVKQRPGQGLDWIGMIHPNSGSTYYNEKFKSKATLTVDKSSSTAYMQLSSLTSEDSAVYYCARYYGSDYEWYFDVWGTGTTVTVSS VL: DIVMTQSQKFMSTSVGDRVSITCKASQNVRTAVVWYQQNPGQSPKALIYLASNRHTGVPDRFTGSGSGTDFTLTISNVHSEDLADYFCLQHWNYPYTFGGGTKLEIK",Kd,[3],2.16 nM
"900759 (Oleclumab antibody sourced from MedImmune, MEDI 9447) (antibody, human IgG1, lambda, L234A L235A, V domains shown) VH: EVQLLESGGGLVQPGGSLRLSCAASGFTFSSYAYSWVRQAPGKGLEWVSAISGSGGRTYYADSVKGRFTISRDNSKNTLYLQMNSLRAEDTAVYYCARLGYGRVDEWGRGTLVTVSS VL: QSVLTQPPSASGTPGQRVTISCSGSLSNIGRNPVNWYQQLPGTAPKLLIYLDNLRLSGVPDRFSGSKSGTSASLAISGLQSEDEADYYCATWDDSHPGWTFGGGTKLTVLG","EC50 of inhibition of the enzyme activity of CD73 on cell membrane (AMP/ATP, CellTiter-Glo)",[4],0.0417 µg/mL
